Test [1] deals with HUVECs. In words: Migration of endothelial cells toward fibronectin, vitronectin or collagen (Example 5-2). The class given is cell-based, human. The method, then: The undersurface of a transwell plate was coated with each of fibronectin, vitronectin and collagen, and then, a test was performed in the same manner as in Example 4-2 above.
For another test, the system named is pc/HEK293 cells. In words: Apoptosis by annexin V staining, pc/HEK293 control cells (Example 8). The class given is cell-based. As to conditions: annexin V FACS. The method, then:
A control cell was transfected with a pcDNA3 vector containing no β3 cDNA or β5 cDNA fragment, and named “pc/HEK293”.
pc/HEK293 cells, β3/HEK293 cells and β5/HEK293 cells were stained with annexin V to identify an integrin that mediates the induction of endothelial cell apoptosis by the fas-1 domain. Each of the cells was suspended in medium at a density of 5×10^5 cells/ml, added to each well of 6-well plated and incubated at 37° C. overnight. Following this, a test was performed in the same manner as in Example 7-1 above.

Test [2] deals with HUVECs. The test can be described thus: Endothelial tube formation assay on Matrigel (Examples 9-1 and 11). The class given is cell-based, human. The method, then:
First, 100 μl of Matrigel (Chemicon, International Inc, Temecula, Calif.) was added to each well of a 96-well plate and allowed to polymerize. HUVECs were suspended in medium at a density of 3×10^5 cells/ml, and 0.1 ml of the cell suspension was added to each well of the plate coated with Matrigel. At this time, 5 μM or 10 μM of the fas-1 domain (βig-h3 D-IV) prepared in Example 1 above was added together. A control was either treated with BSA or had no treatment. Thereafter, the cells were incubated at 37° C. for 16-18 hours. The cells were photographed, and endothelial tubes were counted and averaged.
For this purpose, the second fas-1 domain of βig-h3 (βig-h3 D-II) was prepared in the same manner as in Example 1-1 above. Since each domain of stabilin-II is insoluble, it was prepared in the form of soluble protein by cloning into the BamHI/XhoI sites of a Nus-conjugated pET43.1 vector (Novagen, USA). The prepared recombinant proteins were named “Nus-fas3” and “Nus-fas7”, respectively. A control to the second fas-1 domain of βig-h3 was treated with BSA, and a control to the fas-1 domain of stabilin-II was treated with a Nus protein. Thereafter, an endothelial tube formation assay was performed in the same manner as in Example 9-1.

In another test the test system is β3/HEK293 cells. The test can be described thus: Apoptosis by annexin V staining, β3/HEK293 cells expressing αvβ3 integrin (Example 8). The class given is cell-based. As to conditions: annexin V FACS. Here is the method: To identify an integrin that mediates the induction of endothelial cell apoptosis by the fas-1 domain, the present inventors performed a test using HEK293 cells (β3/HEK293 and β5/HEK293) which had been transfected such as to express αvβ3 integrin or αvβ5 integrin.
For this purpose, a β3/HEK293 cell that expresses αvβ3 integrin was prepared in the following manner. In order to construct a human β3 integrin expression vector, RT-PCR using human placenta poly(A)^+ RNA as a template was first performed to produce 2.4-kb β3 cDNA (Chandrika, S. K. et al., J. Biol. Chem., 272:16390-16397, 1997). The amplified β3 cDNA was digested with HindIII/XbaI, and then cloned into a pcDNA3 vector (Invitrogen). The resulting vector was named “β3/pcDNA3”. Thereafter, 1 μg of the β3/pcDNA3 vector was introduced into HEK293 cells (ATCC, catalog No. CRL 1573) by lipofectamin (Gibco). As the vector contains a G418 selection marker, a stable transfected cell was screened using 1 mg/ml of G418. The cell transfected with the β3/pcDNA3 vector was named “β3/HEK293”.
pc/HEK293 cells, β3/HEK293 cells and β5/HEK293 cells were stained with annexin V to identify an integrin that mediates the induction of endothelial cell apoptosis by the fas-1 domain. Each of the cells was suspended in medium at a density of 5×10^5 cells/ml, added to each well of 6-well plated and incubated at 37° C. overnight. […]

In test [3] the test system is HUVECs. In words: Binding of biotin-βig-h3 to HUVECs, Western immuno-blotting (Example 3-4). Also noted: species or system human. As to conditions: biotinylated βig-h3. The method, then: To confirm that HUVECs adhesion that is mediated by βig-h3 depends on αvβ3 integrin, the present inventors tested the binding affinity of βig-h3 in the presence of an antibody that specifically blocks the function of the integrin. This binding assay was performed according to the method described by Maile, L. A., et al., J. Biol. Chem., […].
First, HUVECs were suspended in medium at a density of 1×10^5 cells/ml. 1 ml of the cell suspension was preincubated with anti-[…] antibody (LM609) or anti-αvβ5 antibody (P1F6) at 37° C. for 30 minutes. Thereafter, the preincubated cells were incubated with biotinylated βig-h3 (hereinafter, referred to as “biotin-βig-h3”) in a serum-free medium containing 0.1% BSA at 4° C. for 5 hours. The biotin-βig-h3 was added at concentrations of […], respectively. Then, the cells were washed three times with PBS buffer (pH 7.4), and dissolved at 4° C. in ice-cold buffer A (10 mM Tris-Cl, pH 7.4, 150 mM NaCl, 1% Nonidet P-40, 1% sodium deoxycholate, 0.5% SDS, 0.02% sodium azide, 1 mM EDTA, 1 mM phenylmethylsulfonyl fluoride). The cell lysates were clarified by centrifugation at 13,000 rpm for 30 minutes at 4° C. Equal amounts of protein were then separated by SDS-PAGE, 8% gel. The amount of biotin-βig-h3 was determined by Western immuno-blotting. […]

B1: fas-1 domain: recombinant protein containing the fourth fas-1 domain of human βig-h3 (SEQ ID NO: 64) (protein, listed as Homo sapiens)
chain: MGTVMDVLKGDNRFSMLVAAIQSAGLTETLNREGVYTVFAPTNEAFRALPPRERSRLLGDAKELANILKYHIGDEILVSGGIGALVRLKSLQGDKLEVSLKNNVVSVNKEPVAEPDIMATNGVVHVITNVL
Take B1: the “inhibition of migration of HUVECs to collagen” value in the test with HUVECs [1] (transwell coated with collagen) is given as “partially inhibited”. Besides, the “inhibition of migration of HUVECs toward fibronectin” value in the test with HUVECs [1] (transwell coated with fibronectin) is “completely inhibited”. Besides, the “inhibition of migration of HUVECs toward vitronectin” value in the test on HUVECs [1] (transwell coated with vitronectin) is reported as “completely inhibited”. Moreover, the “induction of apoptosis of pc/HEK293 cells” value in the test with pc/HEK293 cells was “not induced”. Besides, the “inhibition of endothelial tube formation” value in the test with HUVECs [2] (5 μM or 10 μM, 16-18 hours) is “inhibited the formation of endothelial tubes on Matrigel in a dose-dependent manner”. Further, the “in vitro angiogenesis inhibitory effect compared with YH motif-containing peptide fragment of 18 amino acids” value in the test on HUVECs [2] (10 μM fas-1 domain vs 1 mM YH peptide) is listed as “much higher”. The “induction of apoptosis of β3/HEK293 cells” value in the test on β3/HEK293 cells is “induced by the fas-1 domain in a dose-dependent manner”.

B2: truncated βig-h3: recombinant human βig-h3 with EMI domain, all four fas-1 domains and RGD motif; residues 68-653 of SEQ ID NO: 1 (SEQ ID NO: 66) (protein, listed as Homo sapiens)
chain: WYQRKICGKSTVISYECCPGYEKVPGEKGCPAALPLSNLYETLGVVGSTTTQLYTDRTEKLRPEMEGPGSFTIFAPSNEAWASLPAEVLDSLVSNVNIELLNALRYHMVGRRVLTDELKHGMTLTSMYQNSNIQIHHYPNGIVTVNCARLLKADHHATNGVVHLIDKVISTITNNIQQIIEIEDTFETLRAAVAASGLNTMLEGNGQYTLLAPTNEAFEKIPSETLNRILGDPEALRDLLNNHILKSAMCAEAIVAGLSVETLEGTTLEVGCSGDMLTINGKAIISNKDILATNGVIHYIDELLIPDSAKTLFELAAESDVSTAIDLFRQAGLGNHLSGSERLTLLAPLNSVFKDGTPPIDAHTRNLLRNHIIKDQLASKYLYHGQTLETLGGKKLRVFVYRNSLCIENSCIAAHDKRGRYGTLFTMDRVLTPPMGTVMDVLKGDNRFSMLVAAIQSAGLTETLNREGVYTVFAPTNEAFRALPPRERSRLLGDAKELANILKYHIGDEILVSGGIGALVRLKSLQGDKLEVSLKNNVVSVNKEPVAEPDIMATNGVVHVITNVLQPPANRPQERGDELADSALEI
Take B2: the “binding to HUVECs surface” value with HUVECs [3] is “bound to HUVECs surface in a dose-dependent manner”.

(Values after patent US20070167369A1, “Novel use of isolated polypeptide comprising four FAS-1 domains, EM1 domain and RGD motif” (KYUNGPOOK NATIONAL UNIVERSITY INDUSTRY-ACADEMIC COOPERATION …, priority 2004, published 2007).)
